Source: the DeepSol protein solubility set

Test: soluble on expression in E. coli; label from the status in PepcDB or PDB records

| Sequence | soluble on expression in E. coli |
| --- | --- |
| MKNFHPTGNCPVRDVISRLGDKWSMLVLITLNANGTMRFSDIHKTIEDISQRMLTVTLRTLESDGLIERKIYAEVPPRVEYYLTDTGGTLIPHIEGLVGWALENMDTILEHRKSN | not soluble |
| MKNIAAAGVLERIRRLAPQASVPPYRTVEEWREWQLAEGRKRSEEINRQNHQLRVEKILNRSGIQPLHSKCSFANYQVQNDGQKYALSQAKSIADELMTGCTNFVFSGKTGTGKNHLAAAMGNRLMAKGRSVIIVTVSDVMSVLHDSYDNGKSGEKFLQELCSVDLLVLDEIGVQRETKNEQVVLHQIIDRRTASLCSVGMLTNLNHAAMSTLLGERIMDRMTMNGGRWVTFNWDSWRPNVSNMRVVK | soluble |
| MKNIHSIEFYTGSKEELLPDFEKDFPYIASRAELDKYIGGYVPWHWHRTVELFYMESGSIEYDTPGGKILFPAGSGGMINPNVLHMTKAISQREKNIQLLHIFDVSLLAGEQGSRIEQKYIAPVITAPQIEVIPLFPGNAEEERILKLLAASFRLSSDEFGYEIKLREALTEIWLMLFELSCSMREKKGEHNKSNDKIKLMMIYIHEHYREKISILELAAAAYLSERECYRVFHDCLHMTPVEYITTYRLQIACQMLAKGQEPITVISHECGLGSSSYFGKVFREYAYCSPTEYRKKWQNSDM | soluble |
| MKNKDSLHVSRRRFLAQLGGLTVAGMLGPSLLTPRSARAADAVAPGAATKEGILTGSHWGAIRATVVDGRFVAAKPFEQDKYPSKMIAGLPDHVHNAARIRYPMVRVDWMRKGHQSDTSQRGDNRFVRVSWDEALDLFYQELERVQKTYGPSALLTASGWQSTGMFHNASGMLARAIALHGNSVSTGGDYSTGAAQVILPRVVGSMEVYEQQTSWPLVLQNSKTIVLWGSDMVKNQQANWWCPDHDVYQYYEQLKEKVASGAISVISIDPVVTSTHDYLGRDKVKHIAINPQTDVPLQLALAHTLYSEKLYDKNFLDNYCVGFDQFLPYLLGEKDGQPKDAAWAEKLCGIDADTIRALARQMAGDRTQIIAGWCVQRMQHGEQWSWMVVVLAAMLGQIGLPGGGFGFGWHYNGAGTPGRKGIILSGFSGSTTVPPVHDSTDYKGYSSTIPIARFMDAILEPGKIINWNGKSVKLPPLKMCVFAGTNPFHRHQQINRIIEGWRKLETVIAIDNQWTSTCRFADIVLPATTQFERNDLDQFGNHSNRGIIAMKQVVSPQFEARNDFDIFRDLCRRFNREAAFTEGLDEMGWLKRIWQEGSQQGKGRGIHLPIFEVFWNQQEYIEFDHPQMFVRHQAFREDPDLEPLGTPSGLIEIYSKTIADMQYDDCQGHPMWFEKIERSHGGPGSQRWPLHLQSVHPDFRLHSQLCESETLRQQYAVGGKEPVFINPQDASARGIRNGDIVRVFNARGQVLAGAVVSDRYAPGVARIHEGAWYDPDKGGDLNALCKYGNPNVLTLDIGTSQLAQATSAHTTLVEIEKYTGPMDNVTAFNGPVEMVAQCEYVPASQGNPHD | not soluble |
| MKNKLFASALCAAALFTTNAMAKDQELYFYNWSEYIPSEVLEDFTKETGIKVIYSTYESNESMYAKLKTQGAGYDLVVPSTYFVSKMRKEGMLQEIDHSKLSHFKDLDPNYLNKPFDPGNKFSIPYIWGATGIGINTDMLDKKSLKNWGDLWDAKWAGQLMLMDDAREVFHIALSKLGYSPNTTNPKEIKAAYRELKKLMPNVLVFNSDFPANPYLAGEVSLGMLWNGSAYMARQEGAPIQIIWPEKGTIFWMDSISIPAGAKNIEAAHKMIDFLLRPENAAKIALEIGYPTPVKTAHDLLPKEFANDPSIYPPQSVIDNGEWQDEVGEASVLYDEYFQKLKVND | soluble |
| MKNQLIDRLTRYTTIDTQSDPKSTTTPSTEKQWDLLHLLEKELQQLGLPTDLDENGYLFATLESNIDVDVPTVGFLAHVDTSPDFNASNVKPQIIENYDGKPYKLGNTKRVLDPKVFPELNSLVGHTLMVTDGTSLLGADDKAGIVEIMEAICYLQEHPEIKHGTIRIGFTPDEEIGRGPHKFDVDRFNADFAYTMDGSQYGELQYESFNAAEAVITCHGVNVHPGSAKNAMVNAIRLGEQFDSLLPDSEVPERTEGYEGFYHLMNFEGTVEKATLQYIIRDHDKKQFELRKKRILEIRDDINAHFENYPVKVDISDQYFNMAEKILPLPHIIDIPKRVFAKLDIPANTEPIRGGTDGSQLSFMGLPTPNIFTGCGNFHGPYEYASIDVMEKAVQVIIGIVEDIAENH | not soluble |
| MKNVTRILTLSNGYHLWSHTSNLGGRTKLLCLHGGPGDTHEVFERFGPELADLDIEVTMYDQLGSWYSDTPNWDDDAIRQQYLTEDYYLSEVDEVRQQLGYKHCYLAGHSWGGMLAMTYAADHQDQLDGLIIISMIDNIADYLKRMHAIRTAEFSPAENAFMLAIEKRQQWNNPHYRQLITHLYHQYINRCHPSMMQHQLDIQAKPVYNHFQGDNEFVVYGVLDDWDFSDTLATIQVPTLLMFADHETMPLATAERMQQRMPNAKLVVTPDSGHNHMVDNPAVFFTYLRNYFSDQLGR | not soluble |
| MKPALHAIDATLPAPPTYTPAGNECALFEHAWKRRVPLLLKGPTGCGKTRFVAHMAARLGLPLFTVSCHDDLTAADLTGRYLLKGGETVWVDGPLTRAVRQGGICYLDEVVEARKDVAVVLHPLADDRRVLPLERTGEELQAPPHFMLVVSYNPGYQSLLKALKPSTRQRFAAIEFGFLAPEQEIAVVAAESGLPSERVAPLVALAGRLRKLKGHDLEEGVSTRLLVYCASLISEGLPVRDAVLAGLIEPLTDDADVKAALIEVAGVVIGLEHHHHHH | soluble |
| MKPKHLLCLSTVVAGLALFSTMTHSVLADDASNPDTILMNNNQANLQRDALVQKLDEGHQQLEAIKHEAKGTDIEATVNKAIDAVDHMKSSIRFNTETIYDFSSIGARVEALSDAIKAIVFSTTQLTHKVEKAHTDTGFAITKLVIRIIDPFASVDAIKAQVQEIKALEEKVINYPDLQPTDRATIYTKAKLNKAIWNTRLERDKKVLGIKSFDVYNRLNKAITHAVGVQLNPTTTVQQVDDEVIAVQNALETALKSLEHHHHHH | soluble |
| MKPKKLSLLLTILPMIIAATGCHSQQESKVDITPHCINLQADSLYRQAMTLMESSCDVDSTRKCIRFLDKALAIDSLNPDYYGMKAKLLSEMGELDSALYIQTLAMEKNAITGEYLFQLGLLQAAKDMHAEAHESFGKSKVFLQAVLKQYPDSLGAFILAEAANSLYENKDSLFMRNIDEIRKRFPERLLEIEMTRRVKPHSLVNQIRRIKIEKDYNIDFDMDSLVEATVNKDLEHHHHHH | not soluble |
| MKPKVLLAGGTGYIGKYLSEVIENDAELFTISKYPDNKKTDDVEMTWIQCDIFHYEQVVAAMNQIDIAVFFIDPTKNSAKITQSSARDLTLIAADNFGRAAAINQVKKVIYIPGSRYDNETIERLGAYGTPVETTNLVFKRSLVNVELQVSKYDDVRSTMKVVLPKGWTLKNVVNHFIAWMGYTKGTFVKTEKSHDQFKIYIKNKVRPLAVFKIEETADGIITLILLSGSLVKKYTVNQGKLEFRLIKESAVVYIHLYDYIPRLFWPIYYFIQAPMQKMMIHGFEVDCRIKDFQSRLKSGENMKYTK | not soluble |
| MKPLFGKVGVFGVGLLGGSVALGIKERFLAEEVHAYDQDPMALEKVLFLGVADRVHTEVGPWVGELDLGILAAPVGALAELGKALAPWAHPESLWTDVGSVKAKVVAALEGLLPHYLGGHPMAGSERAGVENAHAGLLQNAVWVLTPTERTSPRAREGVRGLVEALGAYPLEMPPGRHDELVARVSHLPYLLAVALNRMVAQSPHRDLLMFLAAGGFRDLTRVASGSPRMSRDMVVENKEALKEAIEELREVLLELEGLLDEPEGLLRAAEEAKRTRDSLPIVRRSLLPEMHDLVVQVPDRPGEIARIATALGEAGVNIKDIEVLTIREAAGALRLSFATREERERARRVLQEAGYRLP | soluble |
| MKPLLETIDTRFGTTNKHAFSRGNTLPYTGVPFGMNYFVPQTSDQDGSWFFDPHLPIFQGIRLTHQPSPWIGDYSWLLLTPVTSQLGGDSLFHRQSSYDIDKACFQPHYLKLFSLRYQIETQLTPTCYGASIRLNQKQGKALSLYLHAADELTVEQVDKRTLALRQEGKTETNKNSLTMFTLEHHHHHH | not soluble |
| MKPVKSGLDSISKYLRTKKEVGRRKIGLLVDGPNILRKEFDVNLEEIRDVLKDYGNIKIGRVFLNQYASDKLVEAIENHGLEPIICSSDVDVRLAVEGMELVYNPNIDTLAIVTRDADFKPLLNKANEHGKETIIFGVEPGFSTALKNSADYVILMGKNHMSGYDDEDEEGKPDASERGEYHEEYPEDEYGESMEKT | not soluble |
